Laboratory results as given in the supplement of paper PMC9112550, “Optimization of the antimicrobial peptide Bac7 by deep mutational scanning” (BMC Biology, 2022).

These sequences were tested on Escherichia coli TOP10 (assay: shrunken log2 fold change of peptide-encoding DNA abundance (4.5 h post-induction vs induction); higher = less antimicrobial activity (less host growth inhibition)). Conditions: time post-induction: 4.5 h; library: site-saturation at positions 5, 18, 19, 20.
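Also: peptides expressed intracellularly from a pBAD plasmid library in pooled LB shake-flask culture, induced with 0.3% L-arabinose, DNA abundance read by NGS, three biological replicates, DESeq2 with apeglm shrinkage.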

Row | Sequence | shrunken log2 fold change
1 | RRIRHRPPRLPRPRPRPMISPRP | -0.442
2 | RRIRNRPPRLPRPRPRPVMGPRP | 0.147
3 | RRIRCRPPRLPRPRPRPDAIPRP | -0.0147
4 | RRIRGRPPRLPRPRPRPSSLPRP | -0.252
5 | RRIRMRPPRLPRPRPRPRTFPRP | 0.541
6 | RRIRHRPPRLPRPRPRPYYVPRP | -0.0196
7 | RRIRSRPPRLPRPRPRPVQTPRP | 0.826
8 | RRIRHRPPRLPRPRPRPAASPRP | 0.144
9 | RRIRVRPPRLPRPRPRPMDAPRP | 0.0377
10 | RRIRRRPPRLPRPRPRPNANPRP | 0.58
11 | RRIRKRPPRLPRPRPRPQYQPRP | -0.11
12 | RRIRQRPPRLPRPRPRPIEDPRP | -0.126
13 | RRIRFRPPRLPRPRPRPKAYPRP | -0.436
14 | RRIRQRPPRLPRPRPRPAHSPRP | 0.426
15 | RRIRVRPPRLPRPRPRPGTYPRP | -0.166
16 | RRIRVRPPRLPRPRPRPVFSPRP | -0.176
17 | RRIRIRPPRLPRPRPRPTCGPRP | -0.0476
18 | RRIRDRPPRLPRPRPRPYLIPRP | -0.387
19 | RRIRQRPPRLPRPRPRPVQPPRP | 0.0898
20 | RRIRVRPPRLPRPRPRPMSSPRP | 0.0619
21 | RRIRKRPPRLPRPRPRPLVMPRP | 0.432
22 | RRIRKRPPRLPRPRPRPVFQPRP | 0.447
23 | RRIRWRPPRLPRPRPRPAECPRP | -0.0444
24 | RRIRARPPRLPRPRPRPDSTPRP | -0.0804
25 | RRIRMRPPRLPRPRPRPNMYPRP | 0.0412

Row | Sequence | shrunken log2 fold change
26 | RRIRMRPPRLPRPRPRPTKEPRP | -0.0201
27 | RRIRTRPPRLPRPRPRPPKPPRP | 0.304
28 | RRIRWRPPRLPRPRPRPMDPPRP | 0.0622
29 | RRIRERPPRLPRPRPRPECWPRP | 0.447
30 | RRIRQRPPRLPRPRPRPSYKPRP | -0.54
31 | RRIRERPPRLPRPRPRPMRDPRP | 0.365
32 | RRIRGRPPRLPRPRPRPIIRPRP | 0.07
33 | RRIRCRPPRLPRPRPRPADEPRP | 0.431
34 | RRIRTRPPRLPRPRPRPTVQPRP | 0.0928
35 | RRIRSRPPRLPRPRPRPPKLPRP | -0.11
36 | RRIRSRPPRLPRPRPRPCKWPRP | -0.053
37 | RRIRMRPPRLPRPRPRPNSLPRP | -0.0986
38 | RRIRRRPPRLPRPRPRPDHQPRP | -0.18
39 | RRIRRRPPRLPRPRPRPWPHPRP | -0.0473
40 | RRIRARPPRLPRPRPRPLVVPRP | 0.194
41 | RRIRARPPRLPRPRPRPQKHPRP | 0.0336
42 | RRIRYRPPRLPRPRPRPTHMPRP | -0.429
43 | RRIRKRPPRLPRPRPRPKQIPRP | 0.0984
44 | RRIRIRPPRLPRPRPRPRTEPRP | 0.0225
45 | RRIRWRPPRLPRPRPRPSRKPRP | 0.244
46 | RRIRWRPPRLPRPRPRPWIMPRP | -0.0381
47 | RRIRKRPPRLPRPRPRPWYIPRP | -0.568
48 | RRIRLRPPRLPRPRPRPEVFPRP | 0.0607
49 | RRIRLRPPRLPRPRPRPVWDPRP | -0.0661
50 | RRIRARPPRLPRPRPRPFISPRP | 0.112

Row | Sequence | shrunken log2 fold change
51 | RRIRDRPPRLPRPRPRPVVMPRP | 0.194
52 | RRIRQRPPRLPRPRPRPDDNPRP | 0.0317
53 | RRIRVRPPRLPRPRPRPFKNPRP | -0.055
54 | RRIRERPPRLPRPRPRPMHQPRP | -0.452
55 | RRIRFRPPRLPRPRPRPYFPPRP | -0.599
56 | RRIRRRPPRLPRPRPRPRKKPRP | 0.207
57 | RRIRWRPPRLPRPRPRPYSFPRP | -0.107
58 | RRIRPRPPRLPRPRPRPWAEPRP | 0.166
59 | RRIRHRPPRLPRPRPRPQDFPRP | 0.0261
60 | RRIRIRPPRLPRPRPRPQPAPRP | 0.213
61 | RRIRMRPPRLPRPRPRPNFIPRP | -0.371
62 | RRIRDRPPRLPRPRPRPVLEPRP | 0.627
63 | RRIRTRPPRLPRPRPRPSSLPRP | -0.0765
64 | RRIRDRPPRLPRPRPRPKKMPRP | -0.0785
65 | RRIRRRPPRLPRPRPRPGRWPRP | 0.591
66 | RRIRKRPPRLPRPRPRPEGRPRP | 0.261
67 | RRIRRRPPRLPRPRPRPDIQPRP | 0.0298
68 | RRIRGRPPRLPRPRPRPRHDPRP | 0.417
69 | RRIRIRPPRLPRPRPRPVGMPRP | 0.0752
70 | RRIRCRPPRLPRPRPRPLKQPRP | -0.151
71 | RRIRKRPPRLPRPRPRPHTKPRP | -0.0306
72 | RRIRWRPPRLPRPRPRPLPLPRP | 0.477
73 | RRIRFRPPRLPRPRPRPFLAPRP | -0.486
74 | RRIRNRPPRLPRPRPRPYQNPRP | 0.0156
75 | RRIRMRPPRLPRPRPRPTQTPRP | 2.06

Row | Sequence | shrunken log2 fold change
76 | RRIRCRPPRLPRPRPRPPICPRP | -0.248
77 | RRIRKRPPRLPRPRPRPGDYPRP | 0.559
78 | RRIRFRPPRLPRPRPRPHYVPRP | -1.78
79 | RRIRFRPPRLPRPRPRPRVPPRP | 0.291
80 | RRIRKRPPRLPRPRPRPWSTPRP | 0.0277
81 | RRIRDRPPRLPRPRPRPIAMPRP | 0.384
82 | RRIRNRPPRLPRPRPRPPKNPRP | 0.196
83 | RRIRTRPPRLPRPRPRPQSCPRP | 0.057
84 | RRIRPRPPRLPRPRPRPCHLPRP | -0.148
85 | RRIRNRPPRLPRPRPRPGIPPRP | -0.0284
86 | RRIRIRPPRLPRPRPRPVRQPRP | -0.0328
87 | RRIRNRPPRLPRPRPRPTNNPRP | -0.545
88 | RRIRKRPPRLPRPRPRPWMYPRP | -0.122
89 | RRIRPRPPRLPRPRPRPLTQPRP | 0.0664
90 | RRIRRRPPRLPRPRPRPPFPPRP | 0.645
91 | RRIRRRPPRLPRPRPRPDAIPRP | -0.0233
92 | RRIRQRPPRLPRPRPRPIKFPRP | -0.282
93 | RRIRTRPPRLPRPRPRPNCRPRP | -0.00739
94 | RRIRMRPPRLPRPRPRPSFTPRP | -0.0116
95 | RRIRRRPPRLPRPRPRPANNPRP | -0.0615
96 | RRIRCRPPRLPRPRPRPTKYPRP | -0.192
97 | RRIRNRPPRLPRPRPRPDHIPRP | 0.00647
98 | RRIRARPPRLPRPRPRPLCTPRP | 0.223
99 | RRIRCRPPRLPRPRPRPCTFPRP | -0.856
100 | RRIRIRPPRLPRPRPRPIDRPRP | 0.203

Row | Sequence | shrunken log2 fold change
101 | RRIRERPPRLPRPRPRPPADPRP | 0.152
102 | RRIRIRPPRLPRPRPRPPGFPRP | 0.195
103 | RRIRTRPPRLPRPRPRPTIHPRP | -0.712
104 | RRIRIRPPRLPRPRPRPFINPRP | -0.365
105 | RRIRLRPPRLPRPRPRPGQTPRP | 0.277
106 | RRIRMRPPRLPRPRPRPQTDPRP | 0.19
107 | RRIRFRPPRLPRPRPRPNECPRP | -0.00063
108 | RRIRNRPPRLPRPRPRPTYHPRP | -0.526
109 | RRIRARPPRLPRPRPRPFDAPRP | 0.116
110 | RRIRGRPPRLPRPRPRPNDVPRP | -0.208
111 | RRIRERPPRLPRPRPRPNAQPRP | 0.138
112 | RRIRCRPPRLPRPRPRPCCNPRP | -0.188
113 | RRIRMRPPRLPRPRPRPFLAPRP | 0.0298
114 | RRIRRRPPRLPRPRPRPMDPPRP | 0.139
115 | RRIRERPPRLPRPRPRPTDWPRP | -0.145
116 | RRIRNRPPRLPRPRPRPWYFPRP | -0.222
117 | RRIRDRPPRLPRPRPRPAGRPRP | 0.632
118 | RRIRQRPPRLPRPRPRPDYPPRP | 0.00454
119 | RRIRERPPRLPRPRPRPFYKPRP | 0.187
120 | RRIRDRPPRLPRPRPRPICAPRP | 0.172
121 | RRIRARPPRLPRPRPRPRRVPRP | 1.36
122 | RRIRVRPPRLPRPRPRPAARPRP | 0.47
123 | RRIRLRPPRLPRPRPRPRIHPRP | -0.081
124 | RRIRQRPPRLPRPRPRPFAPPRP | 0.0897
125 | RRIRGRPPRLPRPRPRPKWNPRP | 0.581

Row | Sequence | shrunken log2 fold change
126 | RRIRNRPPRLPRPRPRPRLEPRP | 0.317
127 | RRIRMRPPRLPRPRPRPGFDPRP | 0.908
128 | RRIRPRPPRLPRPRPRPWHKPRP | -0.29
129 | RRIRARPPRLPRPRPRPYPWPRP | -0.32
130 | RRIRVRPPRLPRPRPRPEWPPRP | 0.225
131 | RRIRCRPPRLPRPRPRPWGPPRP | -0.299
132 | RRIRVRPPRLPRPRPRPQWCPRP | 0.0102
133 | RRIRERPPRLPRPRPRPIVAPRP | 0.33
134 | RRIRSRPPRLPRPRPRPHSGPRP | 0.0329
135 | RRIRIRPPRLPRPRPRPHPDPRP | -0.45
136 | RRIRKRPPRLPRPRPRPNHIPRP | -0.358
137 | RRIRRRPPRLPRPRPRPERMPRP | 0.222
138 | RRIRGRPPRLPRPRPRPPGAPRP | 1.51
139 | RRIRCRPPRLPRPRPRPAICPRP | 0.0424
140 | RRIRPRPPRLPRPRPRPYQLPRP | -0.441
141 | RRIRDRPPRLPRPRPRPIVAPRP | -0.0201
142 | RRIRERPPRLPRPRPRPRKAPRP | 0.444
143 | RRIRKRPPRLPRPRPRPACYPRP | 0.13
144 | RRIRKRPPRLPRPRPRPLQQPRP | 0.26
145 | RRIRGRPPRLPRPRPRPIIFPRP | 0.437
146 | RRIRARPPRLPRPRPRPYSSPRP | -0.28
147 | RRIRCRPPRLPRPRPRPGCYPRP | -0.501
148 | RRIRFRPPRLPRPRPRPPEEPRP | 0.153
149 | RRIRNRPPRLPRPRPRPCHRPRP | -0.139
150 | RRIRVRPPRLPRPRPRPYQWPRP | -0.175
